Data taken from patent US20180222987A1.

Experiments:
[1] = biological target: human CD123 on cells (human) (UniProt P26951); experiment: cell-based or functional assay
[2] = biological target: human CD123 on cells (human) (UniProt P26951); experiment: flow cytometry, THP-1 cells, 3 µg antibody
[3] = biological target: human CD123 on cells (human) (UniProt P26951); experiment: flow cytometry, TF-1 cells, 3 µg antibody
[4] = biological target: Macaca fascicularis CD3ε/δ-Fc fusion heterodimer (Macaca fascicularis) (UniProt Q95LI8); experiment: SPR, cyno against human CD3ε/δ
[5] = biological target: Macaca fascicularis CD3ε/δ-Fc fusion heterodimer (Macaca fascicularis) (UniProt Q95LI8); experiment: SPR, CD3ε/δ-Fc captured, Fab analyte
[6] = biological target: Macaca fascicularis CD3ε/δ-Fc fusion heterodimer (Macaca fascicularis) (UniProt Q95LI8); experiment: SPR, steady state

Macaca fascicularis CD3ε/δ-Fc fusion heterodimer (Macaca fascicularis), sequence (chain, as listed by the source mutant, chain 1 of 2): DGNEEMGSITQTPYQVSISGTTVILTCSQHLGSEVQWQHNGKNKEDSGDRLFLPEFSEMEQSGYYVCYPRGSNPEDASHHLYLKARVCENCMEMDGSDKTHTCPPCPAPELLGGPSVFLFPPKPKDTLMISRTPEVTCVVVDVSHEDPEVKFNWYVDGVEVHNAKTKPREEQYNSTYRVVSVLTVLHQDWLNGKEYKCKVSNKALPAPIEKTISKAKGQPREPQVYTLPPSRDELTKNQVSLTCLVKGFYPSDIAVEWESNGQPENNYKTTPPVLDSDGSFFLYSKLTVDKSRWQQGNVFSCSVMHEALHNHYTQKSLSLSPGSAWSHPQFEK
Macaca fascicularis CD3ε/δ-Fc fusion heterodimer (Macaca fascicularis), sequence (Q95LI8 22-105, stated change not applied, chain 2 of 2): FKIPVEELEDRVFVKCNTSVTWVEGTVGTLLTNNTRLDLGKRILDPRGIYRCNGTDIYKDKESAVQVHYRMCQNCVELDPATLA
human CD123 on cells (human), sequence (P26951 19-378): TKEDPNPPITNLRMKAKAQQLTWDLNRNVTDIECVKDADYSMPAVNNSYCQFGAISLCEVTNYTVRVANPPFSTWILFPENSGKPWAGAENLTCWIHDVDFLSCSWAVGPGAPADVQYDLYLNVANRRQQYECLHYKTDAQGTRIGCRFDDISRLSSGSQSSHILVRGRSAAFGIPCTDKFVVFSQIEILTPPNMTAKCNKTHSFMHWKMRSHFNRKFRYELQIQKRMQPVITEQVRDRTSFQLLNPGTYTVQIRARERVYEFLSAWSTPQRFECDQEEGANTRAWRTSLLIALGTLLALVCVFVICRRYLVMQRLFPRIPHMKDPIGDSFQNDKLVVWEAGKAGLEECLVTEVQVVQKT

Row | Binder | % FITC positive cells [2] | % FITC positive cells [3] | ratio KD(cy)/KD(hu) [4] | Kd [5] | koff [5] | kon [5] | also measured
1 | CODV-Fab 7G3 × OKT3 (bispecific antibody, part only; not given: OKT3 variable domains, full chains, V domains shown, part only) VH: EVQLQQSGPELVKPGASVKMSCKASGYTFTDYYMKWVKQSHGKSLEWIGDIIPSNGATFYNQKFKGKATLTVDRSSSTAYMHLNSLTSEDSAVYYCTRSHLLRASWFAYWGQGTLVTVSA VL: DFVMTQSPSSLTVTAGEKVTMSCKSSQSLLNSGNQKNYLTWYLQKPGQPPKLLIYWASTRESGVPDRFTGSGSGTDFTLTISSVQAEDLAVYYCQNDYSYPYTFGGGTKLEIK |  |  |  |  |  |  | Activity EC50 (cytotoxic assay, THP-1 targets + primary human T cells) [1]: 0.016 µg/mL
2 | CODV-Fab BFX-3E3-D3 × CD3 (bispecific antibody, part only; not given: CD3 arm, linkers, constant domains, V domains shown, part only) VH: QVQLQESGPGLVQPSQTLSLTCTVSGFSLTTYDVHWVRQPPGKGLEWMGRIQNGGITDYNSALKSRLIISRDTSKSQVFLKMNSVQTEDTAMYFCAKTGSYFYAFDHWGQGTLVTVSS VL: QFVLTQPNSVSTNLGSTVKLSCKRNTGNIGSNYVNWYQQHEGRSPTTMIYRDDKRPDGVPDRFSGSIDRSSNSALLTINNVQTEDEADYFCQSYSSGINIIFGGGTKLTVL | 99% | 31.6% |  |  |  |  | EC50 cytotoxic assay (THP-1), geomean [1]: 0.0122 µg/mL
3 | 1E6 Fab (Fab, V domains shown) VH: EVQLVETGGSLVQPGKSLKLTCATSGFTFSYAWMHWVRQSPDKQLQWVAQIKAKSNNYATYYAESVEGRFTISRDDSKSSVYLQMNSLKEEDTAIYYCRGVYYGLLGLDAWGQGTSVTVSS VL: DVVMTQTPVSLSVRLGGQVSISCRSSQSLVHNNGNTYLSWFLQKPGQSPQLLIYKVSNRFSGISDRFSGSASGTDFTLKISRVEPDDLGVYYCGQGTHYPFTFGSGTKLEIK |  |  | 1 | 42 nM | 0.0042 s⁻¹ | 100000 M⁻¹ s⁻¹ | 
4 | 13H2 Fab (Fab, V domains shown) VH: EEELVETGGSLVQPGKSLKLTCATSGFTFSNAWMHWVRQSPDKQLEWVAQIKAKSNNYATYYAESVKGRFTISRDDSKSSVYLQMNNLKEEDTAIYYCRYVHYGLAPMDAWGQGTSVTVSS VL: DVVMTQTPVSLSVSLGGQVSISCRSSQSLVHNNGNTYLSWYLQKAGQSPQLLIYKVSNRFSGISDRFSGSGSGTDFILKISRVEPDDLGVFYCGQGTQYPFTFGAGTKLELK |  |  | 1 | 32 nM | 0.0059 s⁻¹ | 180000 M⁻¹ s⁻¹ | 
5 | CODV-Fab BFX-2F8-D6 × CD3 (bispecific antibody, V domains shown, not shown: a dimerising Fc or GST; small tags and cut ends) VH: QVQLKESGPGLVQPSQTLSLTCTVSGFSLTSYGVSWVRQPPGKGLEWIATISSAGSTYYDLVLKSRLSITRDTSKSQVFLKVHSLQTEDTAIYLCARDAPVFNYGSYNAMDSWGQGTSVTVSS VL: DIQMTQSPSFLSATVGDRVTINCKASQNINKYLNWYQQKLGEAPKRLIYNTNSLQTGIPSRFSGSGSGTDYTLTISSLQPEDVATYFCLQHKSGLTFGSGTKLEIK | 24% | 9.3% |  |  |  |  | 
6 | CODV-Fab BFX-9B8-G6 × CD3 (bispecific antibody, part only; not given: CD3 arm, linkers, constant domains, tag, V domains shown, not shown: another chain or arm of the molecule; a dimerising Fc or GST; small tags and cut ends) VH: EVKLQESGPSLVQSSQTLSLTCTVSGFSLTSYHIHWVRQPPGKGLEWMGVMWSDGDTSYSSALKSRLSISRDTSQSQVFLKMNSLQTEDTATYYCARGDYSSYIYLWFAYWGQGTLVTVSS VL: DIVMTQSPSSLAVSAGETVTINCKSSQSFLSSGDERNYVAWYQHKPGQSPKLLIYWASTRHSGVPDRFIGSGSGTDFTLTISSVQAEDLAIYYCQQYYDTPLTFGSGTKLEIK | 48.8% | 31.1% |  |  |  |  | 
7 | CODV-Fab BFX-9D7-C8 × CD3 (bispecific antibody, part only; not given: CD3 arm, linkers, constant domains, tag, V domains shown, not shown: another chain or arm of the molecule; a dimerising Fc or GST; small tags and cut ends) VH: EVKLQESGPSLVQSSQTLSLTCTVSGFSLTSYHIHWVRQTPGKGLEWMGVMWSDGDTSYNSALKSRLSISRDTSQSQVFLKMNSLQTEDTATYYCARGYYSSYLYLWFAYWGQGTLVTVSS VL: DIVMTQSPSSLAVSEGETVTINCKSSQSFLSSGDGKNYVAWYQYKPGQSPKLLIYWASTRQSGVPDRFIGSGSGTDFTLTISTVQAEDLAIYYCQQYYDTPLTFGSGTKLEIK | 88.7% | 50.2% |  |  |  |  | 
8 | CODV-Fab BFX-9F6-G3 × CD3 (bispecific antibody, part only; not given: CD3 arm, linkers, constant domains, tag, V domains shown, not shown: another chain or arm of the molecule; a dimerising Fc or GST; small tags and cut ends) VH: QVQLQESGPTLVKPGDSVKMSCKASGYTFTDYIIHWVKQSHGKSLEWIGYINPYSDGTNYNEKFKSKATLTVDKSTSTAYMEFSRLTSEDSAIYFCALNYGSYYAMDAWGQGTSVTVSS VL: DIQMTQSPASLSASLGETVTIECRPSEDIHSNVAWYQQKPGNSPQLLIYDASNLADGVPSRFSGSGSGTQYSLKINSLQSEDVASYFCHQYNIYPYTFGSGTKLELK | 99.7% | 60.7% |  |  |  |  | 
9 | 12D2-E5 Fab (Fab, V domains shown) VH: EVKLVESGGGLVQPGRSLRLSCAASGFNFYAYWMGWVRQAPGKGLEWIGEIKKDGTTINYTPSLKDRFTISRDNAQNTLYLQMTKLGSEDTALYYCAREERDGYFDYWGQGVMVTVSS VL: QFVLTQPNSVSTNLGSTVKLSCKRSTGNIGSNYVNWYQQHEGRSPTTMIYRDDKRPDGVPDRFSGSIDRSSNSALLTINNVQTEDEADYFCQSYSSGIVFGGGTKLTVL |  |  | 4 |  |  |  | Kd [6]: 4.8 nM
10 | 5B1-G2 Fab (Fab, V domains shown) VH: EVQVVETGGSLVQPGKSLKLTCATSGFSFSNAWMHWVRQSPEKQLEWVAQIKDKANNYATYYAESVKGRFTISRDDSKGSIYLQMNSLKEEDTAVYYCRGLYYGLFPSDYWGQGVMVTVSS VL: DVVMTQTPVSLSVSLGGQVSISCRSSQSLVHNNGNTYLSWYLLKPGQSPQLLIYKVSNRFSGISDRFSGGGSGTDFTLKISRLEPDDLGIYYCGQGTQYPFTFGSGTKLEIK |  |  | 1 | 4.3 nM | 0.00015 s⁻¹ | 34000 M⁻¹ s⁻¹ | 
